Laboratory results as given in patent US20200368282A1.

Target: human TNFR2 (tumor necrosis factor receptor 2) (human) (UniProt P20333)
Experiment: surface plasmon resonance (Pioneer SensiQ)

UniProt P20333, sequence (P20333 23-257 S98P/S102P limits assumed): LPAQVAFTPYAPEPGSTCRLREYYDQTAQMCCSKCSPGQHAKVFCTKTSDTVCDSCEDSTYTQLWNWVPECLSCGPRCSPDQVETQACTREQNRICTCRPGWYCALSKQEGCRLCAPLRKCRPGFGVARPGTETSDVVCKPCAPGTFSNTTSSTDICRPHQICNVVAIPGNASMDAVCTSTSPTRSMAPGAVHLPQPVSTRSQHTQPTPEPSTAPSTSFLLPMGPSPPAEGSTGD

## Clone MAB726 (R&D Systems, Inc.) (antibody)
  Kd: 0.621 nM
